From patent US20110160280
Where a chain is given by its changes, count along the chain named.

Experiments:
[1] = target: GST-tagged partial EGFR fragment #3 (codons 1046-1186) (UniProt P00533)
[2] = target: active recombinant EGFR (Millipore) (UniProt P00533)
[3] = test system: active recombinant MET (Millipore)
[4] = test system: T1, WDHD1 S374A immunoprecipitant
T1 sequence: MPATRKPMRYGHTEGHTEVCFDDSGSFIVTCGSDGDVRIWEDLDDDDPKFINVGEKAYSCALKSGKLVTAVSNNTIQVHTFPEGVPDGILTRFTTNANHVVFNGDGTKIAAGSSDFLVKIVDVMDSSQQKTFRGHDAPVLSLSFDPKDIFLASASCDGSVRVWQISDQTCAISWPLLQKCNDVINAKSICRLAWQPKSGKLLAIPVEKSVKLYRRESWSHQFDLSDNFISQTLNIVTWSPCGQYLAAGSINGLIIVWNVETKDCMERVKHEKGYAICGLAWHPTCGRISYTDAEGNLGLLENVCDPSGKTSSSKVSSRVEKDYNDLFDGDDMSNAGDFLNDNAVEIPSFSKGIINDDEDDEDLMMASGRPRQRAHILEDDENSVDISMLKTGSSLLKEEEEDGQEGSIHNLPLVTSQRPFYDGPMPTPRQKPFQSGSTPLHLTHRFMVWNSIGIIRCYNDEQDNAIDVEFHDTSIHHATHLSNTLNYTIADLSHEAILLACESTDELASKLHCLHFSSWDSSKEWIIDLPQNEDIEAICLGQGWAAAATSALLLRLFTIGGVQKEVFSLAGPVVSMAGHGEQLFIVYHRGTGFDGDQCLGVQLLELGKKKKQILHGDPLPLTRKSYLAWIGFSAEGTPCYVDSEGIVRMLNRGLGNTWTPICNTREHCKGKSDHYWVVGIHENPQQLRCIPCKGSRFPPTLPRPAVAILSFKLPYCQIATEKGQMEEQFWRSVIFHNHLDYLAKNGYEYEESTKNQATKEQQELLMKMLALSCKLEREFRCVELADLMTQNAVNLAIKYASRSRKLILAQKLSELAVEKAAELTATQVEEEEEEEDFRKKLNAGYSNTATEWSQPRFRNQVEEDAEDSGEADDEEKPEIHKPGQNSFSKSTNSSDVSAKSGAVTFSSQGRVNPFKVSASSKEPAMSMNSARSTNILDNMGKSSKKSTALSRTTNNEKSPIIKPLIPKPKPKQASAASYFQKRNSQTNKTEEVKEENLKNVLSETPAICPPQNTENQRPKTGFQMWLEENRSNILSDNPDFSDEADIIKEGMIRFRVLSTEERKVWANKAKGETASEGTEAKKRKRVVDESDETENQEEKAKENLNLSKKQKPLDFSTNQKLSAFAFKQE

[5] = test system: T2, WDHD1 immunoprecipitant, wild type (c-Myc-tagged WDHD1, pcDNA3.1/myc-His-WDHD1)
T2 sequence: T1 sequence with A374S

active recombinant EPHA7 (Carnabioscience), sequence (chain, as listed by the source): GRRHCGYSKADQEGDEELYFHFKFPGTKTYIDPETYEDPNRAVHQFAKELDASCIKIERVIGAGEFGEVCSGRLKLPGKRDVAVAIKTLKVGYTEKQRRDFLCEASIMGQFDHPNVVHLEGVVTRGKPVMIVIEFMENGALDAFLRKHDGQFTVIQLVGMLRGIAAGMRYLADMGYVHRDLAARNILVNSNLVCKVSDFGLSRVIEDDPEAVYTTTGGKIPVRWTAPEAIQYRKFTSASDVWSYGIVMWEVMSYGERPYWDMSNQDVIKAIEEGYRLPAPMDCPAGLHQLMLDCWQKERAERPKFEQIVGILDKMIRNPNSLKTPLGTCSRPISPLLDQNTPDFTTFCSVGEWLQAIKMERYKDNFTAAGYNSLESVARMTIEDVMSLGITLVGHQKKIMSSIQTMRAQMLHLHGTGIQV
active recombinant MET (Millipore), sequence (chain, as listed by the source): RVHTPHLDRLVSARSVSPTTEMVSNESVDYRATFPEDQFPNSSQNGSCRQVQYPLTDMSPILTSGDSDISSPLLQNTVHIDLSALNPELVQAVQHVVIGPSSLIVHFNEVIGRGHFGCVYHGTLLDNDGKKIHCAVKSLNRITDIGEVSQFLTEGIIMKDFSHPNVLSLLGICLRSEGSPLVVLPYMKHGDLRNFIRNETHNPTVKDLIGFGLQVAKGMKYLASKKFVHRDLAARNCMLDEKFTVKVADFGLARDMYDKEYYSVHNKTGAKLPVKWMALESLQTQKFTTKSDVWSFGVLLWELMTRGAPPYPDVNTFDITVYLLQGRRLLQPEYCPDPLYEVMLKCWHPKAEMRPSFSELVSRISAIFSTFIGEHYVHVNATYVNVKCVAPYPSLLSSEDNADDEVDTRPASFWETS

Substance	in vitro kinase assay (phosphorylation of partial EGFR fragment) [1]	in vitro kinase assay (phosphorylation of EGFR) [2]	in vitro kinase assay (level of EPHA7 phosphorylation) [3]	in vitro kinase assay (phosphorylation of MET) [3]	in vitro kinase assay, immunoblot with PAS antibody [4]	in vitro kinase assay, immunoblot with PAS antibody [5]
active recombinant EPHA7 (Carnabioscience)	phosphorylated tyrosine residues on cytoplasmic EGFR could be present in COOH-terminal portion (codons 1046-1186)	EPHA7 could directly phosphorylate EGFR under the existence of EGFR kinase inhibitor that had diminished autophosphorylation of EGFR	the level of EPHA7 phosphorylation was markedly elevated when MET was co-incubated in the presence MET kinase inhibitor	EPHA7 could directly phosphorylate MET		
recombinant human AKT1 (rhAKT1; Invitrogen)					clearly indicated the reduced levels of WDHD1 phosphorylation in cells transfected with S374A mutant	proved the direct phosphorylation of WDHD1 by AKT
